US20240189424A1 (published 2024)
Residue numbers refer to the chain shown, from its start.

Legend:
[1] = molecular target: T1, Soluble monomeric B7H6-His (UniProt Q68D85 25-262, limits assumed); assay: BLI, Fc fusion on Protein A tips, monovalent B7H6-His
T1 construct: extracellular domain; also called monovalent B7H6; soluble B7H6; not shown: C-terminal Avi-tag and 6xHis-tag
T1 sequence (looked up): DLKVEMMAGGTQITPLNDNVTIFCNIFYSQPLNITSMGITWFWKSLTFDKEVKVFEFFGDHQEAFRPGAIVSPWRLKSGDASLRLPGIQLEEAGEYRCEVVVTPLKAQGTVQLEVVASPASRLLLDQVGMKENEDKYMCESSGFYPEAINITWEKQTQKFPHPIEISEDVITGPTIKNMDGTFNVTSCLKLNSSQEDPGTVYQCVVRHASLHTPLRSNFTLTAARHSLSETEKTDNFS
Procedure: (§1) BioLayer Interferometry (BLI) measurements of affinity KD were obtained using the ForteBio Octet RED96 system as previously described. Briefly, Protein A-coated biosensor tips were “activated” by incubation with 41 nM TZ47-Fc, NKp30-Fc, or CC3-Fc for 10 min to load tips. Binding to soluble B7H6-His were assessed by allowing TZ47-Fc, NKp30-Fc, or CC3-Fc coated tips to equilibrate in PBS+0.1% Tween-20 (PBST) for 5 min, followed by association steps in 200 μL of each antigen at concentrations ranging from 0 to 3000 nM for 10 min, and dissociation steps in 200 µL of PBST for 5 min. Data was analyzed using Octet® System Data Analysis software.
(§2) Clone CC5, which contains only the consensus S82P mutation, along with CC3, which had two additional amino acid substitutions, were chosen for further characterization. To define binding affinities and kinetics with improved resolution, CC3, CC5, NKp30, and TZ47 sequences were expressed recombinantly as Fc fusion proteins. Affinity to monovalent B7H6 was determined by Biolayer Interferometry (BLI). […] The fast on and off rate profile of NKp30 was maintained in the variants despite the increase in overall affinity.

[2] = molecular target: T1, Soluble monomeric B7H6-His; assay: BLI (Octet RED96), Fc fusion on Protein A tips, monovalent B7H6-His in solution, steady state affinity
Procedure: as §1, §2

What does the source list for “CC3-Fc (from UniProt O14931 19-135) (Fc fusion)”?
fold improvement of KD compared to NKp30 [1]: 2 fold; Kd [2]: 680 nM

B1: CC5-Fc (Fc fusion)
chain: LWVSQPPEIRTLEGSSAFLPCSFNASQGRLAIGSVTWFRDEVVPGKEVRNGTPEFRGRLAPLAPSRFLHDHQAELHIRDVRGHDASIYVCRVEVLGLGVGTGNGTRLVVEKEHPQLG
notes: also called clone CC5; not shown: mouse IgG2a Fc domain
Which results are given for B1?
fold improvement of KD compared to NKp30 [1]: 2 fold; Kd [2]: 580 nM

B2: NKp30-Fc (Fc fusion)
chain: B1 chain with P64S
notes: Extracellular domain of NKp30 fused to a mouse IgG2a Fc domain, expressed in expi293 HEK cells, bivalent; also called native NKp30; wildtype NKp30; not shown: mouse IgG2a Fc domain
For B2, which Kd [2] is on record?
Its Kd is 1300 nM.
